Assay results reported in patent US20240392020A1 (JIANGSU HENGRUI PHARMACEUTICALS, published 2024).
Where two headings read alike, the source gives them in different places.

T1: CEA on MKN45 cells (UniProt P06731 35-685)
T1 construct: whole, on cells
T1 sequence (looked up): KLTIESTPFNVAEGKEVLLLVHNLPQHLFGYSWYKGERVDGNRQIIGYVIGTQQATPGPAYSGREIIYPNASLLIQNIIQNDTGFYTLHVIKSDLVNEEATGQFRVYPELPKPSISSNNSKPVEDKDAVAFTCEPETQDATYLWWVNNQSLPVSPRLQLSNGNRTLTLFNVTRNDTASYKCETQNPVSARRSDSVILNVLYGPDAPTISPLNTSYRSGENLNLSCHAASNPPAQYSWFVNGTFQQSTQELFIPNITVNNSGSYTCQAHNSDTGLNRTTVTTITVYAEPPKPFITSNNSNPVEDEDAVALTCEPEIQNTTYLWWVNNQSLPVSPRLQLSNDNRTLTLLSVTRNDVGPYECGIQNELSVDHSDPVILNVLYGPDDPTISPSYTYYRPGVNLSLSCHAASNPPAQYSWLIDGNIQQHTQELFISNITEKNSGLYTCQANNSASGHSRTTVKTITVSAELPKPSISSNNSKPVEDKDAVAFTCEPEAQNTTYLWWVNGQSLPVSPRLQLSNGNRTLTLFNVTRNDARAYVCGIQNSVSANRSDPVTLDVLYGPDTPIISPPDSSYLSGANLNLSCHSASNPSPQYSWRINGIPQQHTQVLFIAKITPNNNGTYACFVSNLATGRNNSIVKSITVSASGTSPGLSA

T2: hP40 (human, UniProt P29460 23-328)
T2 construct: bought
T2 sequence (looked up): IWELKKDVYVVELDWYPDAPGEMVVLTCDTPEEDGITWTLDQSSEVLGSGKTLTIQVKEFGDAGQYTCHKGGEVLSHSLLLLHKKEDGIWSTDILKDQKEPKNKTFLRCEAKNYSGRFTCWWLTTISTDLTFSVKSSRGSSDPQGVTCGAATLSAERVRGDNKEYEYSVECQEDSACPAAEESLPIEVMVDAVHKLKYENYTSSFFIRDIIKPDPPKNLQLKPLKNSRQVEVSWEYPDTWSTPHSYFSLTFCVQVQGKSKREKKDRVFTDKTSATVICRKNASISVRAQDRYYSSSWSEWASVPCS


Assays:
[1] = target: T1, CEA on MKN45 cells; assay: FACS, MKN45 cells
[2] = target: T1, CEA on MKN45 cells; assay: FACS, MKN45 cells; remark: listed apart in the source
[3] = target: T2, hP40; assay: ELISA
Experimental: (§1) For an antibody targeting a soluble protein, the binding activity of the antibody against the soluble protein was detected by ELISA. […] After the blocking was completed, the blocking solution was discarded; and the plate was washed 3 times with a PBST buffer (pH 7.4, PBS containing 0.1% tween-20). 100 μL of the antibody solution diluted in a gradient was added to each well, and the mixture was incubated at 37° C. for 1 h. After the incubation was completed, the plate was washed 3 times with PBST. […] The plate was washed 3 times with PBST. […] The reaction was stopped by adding 50 μL of 1 M H₂SO₄ to each well. The absorbance values at 450 nm were read on a microplate reader, the binding curves of the antibodies to an antigen were fitted with software, and the EC₅₀ values were calculated.

[4] = target: T3, hBAFF (human, UniProt Q9Y275 134-285); assay: ELISA
T3 construct: bought
Experimental: as §1

[5] = target: T4, hTSLP (human, UniProt Q969D9 29-159); assay: ELISA
T4 construct: bought
Experimental: as §1

[6] = target: T2, hP40; assay: SPR Biacore T200, antibody captured on Protein A chip
Experimental: (§2) The affinity of a test antibody for an antigen protein was determined by using a Biacore T200 (GE) instrument. […] The data obtained from the experiment was fitted with BIAevaluation version 4.1, GE software using a (1:1) Langmuir model to obtain affinity values.

[7] = target: T3, hBAFF; assay: as above
Experimental: as §2

| Binder | EC50 [2] [nM] | EC50 [3] [nM] | EC50 [4] [nM] | also measured |
| --- | --- | --- | --- | --- |
| N7 (antibody) heavy: not shown light: EIVLTQSPGTLSLSPGERATLSCRASQNINNRFLAWYQQRPGQAPRLLIYAASSRATGVPDRFSGSGSGTDFTLTISRLEAEDFAMYHCQQYGSFPRTFGQGTMVDIKQGSPPEFLRFPRPVRVVSGAEAELKCVVLGEPPPVVVWEKGGQQLAASERLSFPADGAEHGLLLTAALPTDAGCYVCRARNAAGEAYAAAAVTVLEPP | 2.8 |  |  |  |
| BU2 (bispecific antibody, human IgG1, kappa, L234A L235A) heavy 1: not shown light 1: not shown heavy 2: QVQLQQSGAEVKKPGSSVRVSCKASGGTFNNNAINWVRQAPGQGLEWMGGIIPMFGTAKYSQNFQGRVAITADESTGTASMELSSLRSEDTAVYYCARSRDLLLFPHHALSPWGRGTMVTVSSGGGGSGIPPKIECLPSDISIDEGKVLTVASAFTGEPTPEVTWSTGGRKIHSQEQGRFHIESTEDLTTLIISDVQKQDGGLYSLSLGNEFGSDSATVNIHIRSIDKTHTCPPCPAPEAAGGPSVFLFPPKPKDTLMISRTPEVTCVVVDVSHEDPEVKFNWYVDGVEVHNAKTKPREEQYNSTYRVVSVLTVLHQDWLNGKEYKCKVSNKALPAPIEKTISKAKGQPREPQVCTLPPSREEMTKNQVSLSCAVKGFYPSDIAVEWESNGQPENNYKTTPPVLDSDGSFFLVSKLTVDKSRWQQGNVFSCSVMHEALHNHYTQKSLSLSPGK light 2: SSELTQDPAVSVALGQTVRVTCQGDSLRSYYASWYQQKPGQAPVLVIYGKNNRPSGIPDRFSGSSSGNTASLTITGAQAEDEADYYCSSRDSSGNHWVFGGGTELTVLGGGGSDQPQFSGAPRFLTRPLSYVVSVGKDASLSSQIVGNPTPQVSWEKDQLPVTAGARFRLAQDGDLYRLKILDLQLSDSGQYVSRARNAIGEAFACVGLEVGAEA |  | 0.0567 | 0.469 |  |
| BU4 (bispecific antibody, human IgG1, kappa, L234A L235A) heavy 1: not shown light 1: not shown heavy 2: QVQLQQSGAEVKKPGSSVRVSCKASGGTFNNNAINWVRQAPGQGLEWMGGIIPMFGTAKYSQNFQGRVAITADESTGTASMELSSLRSEDTAVYYCARSRDLLLFPHHALSPWGRGTMVTVSSGGGGSKAGIRGIPPKIECLPSDISIDEGKVLTVASAFTGEPTPEVTWSTGGRKIHSQEQGRFHIESTEDLTTLIISDVQKQDGGLYSLSLGNEFGSDSATVNIHIRSIDKTHTCPPCPAPEAAGGPSVFLFPPKPKDTLMISRTPEVTCVVVDVSHEDPEVKFNWYVDGVEVHNAKTKPREEQYNSTYRVVSVLTVLHQDWLNGKEYKCKVSNKALPAPIEKTISKAKGQPREPQVCTLPPSREEMTKNQVSLSCAVKGFYPSDIAVEWESNGQPENNYKTTPPVLDSDGSFFLVSKLTVDKSRWQQGNVFSCSVMHEALHNHYTQKSLSLSPGK light 2: SSELTQDPAVSVALGQTVRVTCQGDSLRSYYASWYQQKPGQAPVLVIYGKNNRPSGIPDRFSGSSSGNTASLTITGAQAEDEADYYCSSRDSSGNHWVFGGGTELTVLGGGGSDQPQFSGAPRFLTRPLSYVVSVGKDASLSSQIVGNPTPQVSWEKDQLPVTAGARFRLAQDGDLYRLKILDLQLSDSGQYVSRARNAIGEAFACVGLEVGAEA |  | 0.0443 | 0.506 |  |
| N3 (antibody) heavy: not shown light: EIVLTQSPGTLSLSPGERATLSCRASQNINNRFLAWYQQRPGQAPRLLIYAASSRATGVPDRFSGSGSGTDFTLTISRLEAEDFAMYHCQQYGSFPRTFGQGTMVDIKSGAPRFLTRPKAFVVSVGKDATLSCQIVGNPTPQVSWEKDQQPVAAGARFRLAQDGDLYRLTILDLALGDSGQYVCRARNAIGEAFAAVGLQVDAEA | 4.5 |  |  | EC50 [1]: 6.45 nM |
| N6 (antibody) heavy: not shown light: EIVLTQSPGTLSLSPGERATLSCRASQNINNRFLAWYQQRPGQAPRLLIYAASSRATGVPDRFSGSGSGTDFTLTISRLEAEDFAMYHCQQYGSFPRTFGQGTMVDIKSGCPRFLTRPKAFVVSVGKDATLSSQIVGNPTPQVSWEKDQQPVAAGARFRLAQDGDLYRLTILDLALGDSGQYVSRARNAIGEAFAAVGLQVDAEA | 8.4 |  |  |  |
| J2 (antibody) heavy: not shown light: SYELTQPLSVSVALGQTARITCSGDNIGSKYVHWYQQKPGQAPVLVIYGDNERPSGIPERFSGSNSGNTATLTISRAQAGDEADYYCQAADWVDFYVFGGGTKLTVLFDPVYKVKPNPPHNLSVINSEELSSILKLTWTNPSIKSVIILKYNIQYRTKDASTWSQIPPEDTASTRSSFTVQDLKPFTEYVFRIRCMKEDGKGYWSDWSEEASGIT |  |  |  | EC50 [5]: 179 nM |
| J0 (antibody, human IgG1, lambda) heavy: not shown light: SYELTQPLSVSVALGQTARITCSGDNIGSKYVHWYQQKPGQAPVLVIYGDNERPSGIPERFSGSNSGNTATLTISRAQAGDEADYYCQAADWVDFYVFGGGTKLTVLGQPKAAPSVTLFPPSSEELQANKATLVCLISDFYPGAVTVAWKADSSPVKAGVETTTPSKQSNNKYAASSYLSLTPEQWKSHRSYSCQVTHEGSTVEKTVAPTECS |  |  |  | EC50 [5]: 0.08 nM |

Continued, in another order:

| EC50 [2] [nM] | EC50 [3] [nM] | EC50 [4] [nM] | Binder | also measured |
| --- | --- | --- | --- | --- |
| 4.6 |  |  | N4 (antibody) heavy: not shown light: EIVLTQSPGTLSLSPGERATLSCRASQNINNRFLAWYQQRPGQAPRLLIYAASSRATGVPDRFSGSGSGTDFTLTISRLEAEDFAMYHCQQYGSFPRTFGQGTMVDIKQGSPPCFLRFPRPVRVVSGAEAELKCVVLGEPPPVVVWEKGGQQLAASERLSFPADGAEHGLLLTAALPTDAGVYVCRARNAAGEAYAAAAVTVLEPP | EC50 [1]: 5.93 nM |
| 2.6 |  |  | N8 (antibody) heavy: not shown light: EIVLTQSPGTLSLSPGERATLSCRASQNINNRFLAWYQQRPGQAPRLLIYAASSRATGVPDRFSGSGSGTDFTLTISRLEAEDFAMYHCQQYGSFPRTFGQGTMVDIKQGSPPEFLRFPRPVRVVSGAEAELKSVVLGEPPPVVVWEKGGQQLAASERLSFPADGAEHGLLLTAALPTDAGCYVSRARNAAGEAYAAAAVTVLEPP |  |
|  | 0.224 | 0.413 | BU3 (bispecific antibody, human IgG1, kappa, L234A L235A) heavy 1: not shown light 1: SSELTQDPAVSVALGQTVRVTCQGDSLRSYYASWYQQKPGQAPVLVIYGKNNRPSGIPDRFSGSSSGNTASLTITGAQAEDEADYYCSSRDSSGNHWVFGGGTELTVLGGGGSDQPQFSGAPRFLTRPLSYVVSVGKDASLSSQIVGNPTPQVSWEKDQLPVTAGARFRLAQDGDLYRLKILDLQLSDSGQYVSRARNAIGEAFACVGLEVGAEA heavy 2: EVQLVQSGAEVKKPGESLKISCKGSGYSFTTYWLGWVRQMPGKGLDWIGIMSPVDSDIRYSPSFQGQVTMSVDKSITTAYLQWNSLKASDTAMYYCARRRPGQGYFDFWGQGTLVTVSSASTKGPSVFPLAPSSKSTSGGTAALGCLVKDYFPEPVTVSWNSGALTSGVHTFPAVLQSSGLYSLSSVVTVPSSSLGTQTYICNVNHKPSNTKVDKKVEPKSCDKTHTCPPCPAPEAAGGPSVFLFPPKPKDTLMISRTPEVTCVVVDVSHEDPEVKFNWYVDGVEVHNAKTKPREEQYNSTYRVVSVLTVLHQDWLNGKEYKCKVSNKALPAPIEKTISKAKGQPREPQVCTLPPSREEMTKNQVSLSCAVKGFYPSDIAVEWESNGQPENNYKTTPPVLDSDGSFFLVSKLTVDKSRWQQGNVFSCSVMHEALHNHYTQKSLSLSPGK light 2: not shown |  |
|  | 0.084 | 0.356 | BU1 (bispecific antibody, human IgG1, lambda, L234A L235A) heavy 1: not shown light 1: SSELTQDPAVSVALGQTVRVTCQGDSLRSYYASWYQQKPGQAPVLVIYGKNNRPSGIPDRFSGSSSGNTASLTITGAQAEDEADYYCSSRDSSGNHWVFGGGTELTVLGQPKAAPSVTLFPPSSEELQANKATLVCLISDFYPGAVTVAWKADSSPVKAGVETTTPSKQSNNKYAASSYLSLTPEQWKSHRSYSCQVTHEGSTVEKTVAPTECS heavy 2: EVQLVQSGAEVKKPGESLKISCKGSGYSFTTYWLGWVRQMPGKGLDWIGIMSPVDSDIRYSPSFQGQVTMSVDKSITTAYLQWNSLKASDTAMYYCARRRPGQGYFDFWGQGTLVTVSSGGGGSGIPPKIECLPSDISIDEGKVLTVASAFTGEPTPEVTWSTGGRKIHSQEQGRFHIESTEDLTTLIISDVQKQDGGLYSLSLGNEFGSDSATVNIHIRSIDKTHTCPPCPAPEAAGGPSVFLFPPKPKDTLMISRTPEVTCVVVDVSHEDPEVKFNWYVDGVEVHNAKTKPREEQYNSTYRVVSVLTVLHQDWLNGKEYKCKVSNKALPAPIEKTISKAKGQPREPQVCTLPPSREEMTKNQVSLSCAVKGFYPSDIAVEWESNGQPENNYKTTPPVLDSDGSFFLVSKLTVDKSRWQQGNVFSCSVMHEALHNHYTQKSLSLSPGK light 2: DIQMTQSPSSLSASVGDRVTITCRASQGISSWLAWYQQKPEKAPKSLIYAASSLQSGVPSRFSGSGSGTDFTLTISSLQPEDFATYYCQQYNIYPYTFGQGTKLEIKGGGGSSGAPRFLTRPLSYVVSVGKDASLSSQIVGNPTPQVSWEKDQLPVTAGARFRLAQDGDLYRLKILDLQLSDSGQYVSRARNAIGEAFACVGLEVGAEA | Kd [6]: 0.0349 nM; koff [6]: 4.81e-05 s⁻¹; kon [6]: 1.38e+06 M⁻¹ s⁻¹; Kd [7]: 0.499 nM; koff [7]: 0.000169 s⁻¹; kon [7]: 338000 M⁻¹ s⁻¹ |
